The source of these data is publication PMC9573856 (2022).

This experiment has as its target T1, 3 × FLAG-aPKC (atypical protein kinase C subtype iota, PKCι), wild type, full length (Homo sapiens (Human), UniProt P41743).
T1 chain: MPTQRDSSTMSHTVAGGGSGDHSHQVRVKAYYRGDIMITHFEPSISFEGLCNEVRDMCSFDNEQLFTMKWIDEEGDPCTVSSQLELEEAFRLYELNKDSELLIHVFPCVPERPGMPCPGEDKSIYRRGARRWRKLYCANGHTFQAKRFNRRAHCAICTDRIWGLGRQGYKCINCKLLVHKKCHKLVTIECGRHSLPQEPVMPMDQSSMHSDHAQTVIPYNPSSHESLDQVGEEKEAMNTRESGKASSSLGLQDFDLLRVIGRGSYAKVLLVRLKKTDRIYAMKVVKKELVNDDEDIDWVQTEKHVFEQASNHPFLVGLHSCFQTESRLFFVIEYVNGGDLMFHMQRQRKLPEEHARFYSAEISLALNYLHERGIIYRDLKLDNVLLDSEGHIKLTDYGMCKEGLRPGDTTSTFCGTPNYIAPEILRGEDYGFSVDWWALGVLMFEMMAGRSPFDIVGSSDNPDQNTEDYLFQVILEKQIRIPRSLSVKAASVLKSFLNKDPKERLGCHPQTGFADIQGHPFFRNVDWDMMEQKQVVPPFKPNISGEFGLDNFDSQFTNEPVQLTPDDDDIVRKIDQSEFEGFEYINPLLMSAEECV
Briefly: co-expression, FLAG co-purification, SEC and glycerol gradient.

B1: PAR6 (PAR6α), untagged, full length (protein)
chain: MARPQRTPARSPDSIVEVKSKFDAEFRRFALPRASVSGFQEFSRLLRAVHQIPGLDVLLGYTDAHGDLLPLTNDDSLHRALASGPPPLRLLVQKREADSSGLAFASNSLQRRKKGLLLRPVAPLRTRPPLLISLPQDFRQVSSVIDVDLLPETHRRVRLHKHGSDRPLGFYIRDGMSVRVAPQGLERVPGIFISRLVRGGLAESTGLLAVSDEILEVNGIEVAGKTLDQVTDMMVANSHNLIVTVKPANQRNNVVRGASGRLTGPPSAGPGPAEPDSDDDSSDLVIENRQPPSSNGLSQGPPCWDLHPGCRHPGTRSSLPSLDDQEQASSGWGSRIRGDGSGFSL
Take B1: the binding result is “binds”.
